{"source": "patent US20030040606A1", "about": "(SKYTECH TECHNOLOGY, published 2003)", "molecular_target": "T1, CD22 on Raji cells (UniProt P20273 20-847, limits assumed)", "T1 construct": "whole, on cells", "T1 sequence (looked up)": "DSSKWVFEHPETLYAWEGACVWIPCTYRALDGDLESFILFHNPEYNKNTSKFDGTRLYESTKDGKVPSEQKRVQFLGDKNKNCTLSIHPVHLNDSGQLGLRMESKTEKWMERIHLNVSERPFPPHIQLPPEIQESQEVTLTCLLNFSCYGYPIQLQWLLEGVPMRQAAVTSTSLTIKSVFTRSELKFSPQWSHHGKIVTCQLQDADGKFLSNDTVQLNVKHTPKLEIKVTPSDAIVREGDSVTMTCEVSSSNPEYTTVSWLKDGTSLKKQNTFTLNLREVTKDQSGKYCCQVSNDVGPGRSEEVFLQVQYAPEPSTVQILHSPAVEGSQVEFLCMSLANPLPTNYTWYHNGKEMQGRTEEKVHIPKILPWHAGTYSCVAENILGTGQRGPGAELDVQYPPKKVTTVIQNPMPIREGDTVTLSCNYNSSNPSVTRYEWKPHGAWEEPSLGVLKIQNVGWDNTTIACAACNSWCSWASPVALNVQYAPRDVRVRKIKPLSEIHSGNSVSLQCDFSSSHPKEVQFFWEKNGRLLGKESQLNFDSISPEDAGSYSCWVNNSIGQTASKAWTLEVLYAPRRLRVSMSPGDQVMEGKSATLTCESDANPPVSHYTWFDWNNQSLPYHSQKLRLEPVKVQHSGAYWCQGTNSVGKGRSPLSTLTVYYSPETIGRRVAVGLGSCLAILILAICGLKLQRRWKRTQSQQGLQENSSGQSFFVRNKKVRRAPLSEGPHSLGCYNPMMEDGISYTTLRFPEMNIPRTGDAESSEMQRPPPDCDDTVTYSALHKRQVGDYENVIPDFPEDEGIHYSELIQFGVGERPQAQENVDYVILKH", "assay": "flow cytometry on Raji cells, 1 ug antibody, FITC goat anti-human IgG1 Fc detection", "procedure": "The mixtures were incubated for 30 minutes at 4° C. and washed three times with PBS to remove unbound antibodies. The binding levels of the antibodies to Raji cells were assessed by the addition of a 20x diluted FITC-labeled, goat anti-human IgG1, Fc fragment-specific antibodies (Jackson ImmunoResearch, West Grove, Pa.) in a final volume of 100 μl in PBS-FA, and incubating for 30 minutes at 4° C."}
{"binder": "FR-patched anti-CD22 antibody hpRFB4 (antibody, human IgG1, V domains shown, Expressed in Sp2/0 cells with a human IgG1 heavy chain constant region and a human kappa light chain constant region (vectors hpRFB4pSMh and hpRFB4pSMk); protein A purified; also called FR-patched antibody; FR-patched RFB4) VH: EVQLLESGGGLVQPGGSLRLSCAASGFSFSIYDMSWVRQAPGKGLEWVAYISSGGGTTYYPDTVKGRFTISRDNAKNSLYLQMNSLRVEDTALYYCARHSGYGSSYGVLFAYWGQGTLVTVSS VL: DIQMTQSPSSLSASVGDRVTISCRASQDISNYLNWYQQKPGKAPKLLIYYTSILHSGVPSRFSGSGSGTEFTLTISSLQPEDFATYFCQQGNTLPWTFGGGTKVEIK", "values": [{"measurement": "binding result", "result": "binds"}]}
